Source: US20040071710A1

Tests used:
[1] = molecular target: E2 BEVS, recombinant HCV genotype 1b E2 protein produced in insect cells using Baculovirus (hepatitis C virus genotype 1b); experiment: ELISA, E2-BEVS coated at 2 µg/ml, antibody at 0.0156 µg/ml
[2] = molecular target: E2 BEVS, recombinant HCV genotype 1b E2 protein produced in insect cells using Baculovirus (hepatitis C virus genotype 1b); experiment: ELISA, E2-BEVS coated at 2 µg/ml, antibody at 1 µg/ml
[3] = molecular target: E2 BEVS, recombinant HCV genotype 1b E2 protein produced in insect cells using Baculovirus (hepatitis C virus genotype 1b); experiment: ELISA, E2-BEVS coated at 2 µg/ml, antibody at 0.125 µg/ml
[4] = molecular target: E2 BEVS, recombinant HCV genotype 1b E2 protein produced in insect cells using Baculovirus (hepatitis C virus genotype 1b); experiment: ELISA, E2-BEVS coated at 2 µg/ml, antibody at 0.0625 µg/ml
[5] = molecular target: E2 CHO, recombinant HCV genotype 1b E2 protein produced in mammalian CHO cells (hepatitis C virus genotype 1b); experiment: BIAcore 2000 (SPR)
[6] = molecular target: E2 BEVS, recombinant HCV genotype 1b E2 protein produced in insect cells using Baculovirus (hepatitis C virus genotype 1b); experiment: BIAcore 2000 (SPR)
[7] = molecular target: E2 BEVS, recombinant HCV genotype 1b E2 protein produced in insect cells using Baculovirus (hepatitis C virus genotype 1b); experiment: ELISA, E2-BEVS coated at 2 µg/ml, antibody at 0.5 µg/ml
[8] = molecular target: E2 BEVS, recombinant HCV genotype 1b E2 protein produced in insect cells using Baculovirus (hepatitis C virus genotype 1b); experiment: ELISA, E2-BEVS coated at 2 µg/ml, antibody at 0.0078 µg/ml
[9] = molecular target: HCV particles from sera of HCV infected patients (hepatitis C virus genotype 1b and 1a/1b); experiment: immuno magnetic separation of virus from patient serum, RT-PCR detection
[10] = molecular target: E2 BEVS, recombinant HCV genotype 1b E2 protein produced in insect cells using Baculovirus (hepatitis C virus genotype 1b); experiment: ELISA, E2-BEVS coated at 2 µg/ml, antibody at 0.03125 µg/ml
[11] = molecular target: E2 BEVS, recombinant HCV genotype 1b E2 protein produced in insect cells using Baculovirus (hepatitis C virus genotype 1b); experiment: ELISA, E2-BEVS coated at 2 µg/ml, antibody at 0.25 µg/ml

Sequence of E2 CHO, recombinant HCV genotype 1b E2 protein produced in mammalian CHO cells (hepatitis C virus genotype 1b) (P26664 384-714): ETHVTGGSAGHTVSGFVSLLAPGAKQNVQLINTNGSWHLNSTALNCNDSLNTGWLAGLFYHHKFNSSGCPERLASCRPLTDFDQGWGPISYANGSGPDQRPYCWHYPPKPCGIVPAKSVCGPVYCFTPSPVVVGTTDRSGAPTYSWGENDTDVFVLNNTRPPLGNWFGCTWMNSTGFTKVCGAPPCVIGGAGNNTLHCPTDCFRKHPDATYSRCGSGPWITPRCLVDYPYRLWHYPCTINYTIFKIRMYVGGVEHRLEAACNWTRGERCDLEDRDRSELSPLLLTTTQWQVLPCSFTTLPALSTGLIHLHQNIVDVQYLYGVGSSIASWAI

B1: HCV-AB 68 (antibody, V domains shown)
VH: QVQLVESGGGVVQPGRSLRLSCATSGFPFSSYGMHWVRQAPGKGLEWVAVISYDGSNEHSIDSVKGRFTISRDNSKNRLYLQMKSLRAEDMAVYFCVRGAHRSSWSGKRFDYWGQGTLVTVSS
VL: DIQMTQSPSTLSASIGDRVTITCRASLNILTWLAWYQQKPGKAPKLLIYEASSLESGVPSRFSGSGSGTQFTLTISSLQPDDFATYYCQQSNTPWTFGQGTKVEIKR
OD450 nm [1]: 0.12 OD450 nm
OD450 nm [2]: 0.439 OD450 nm
OD450 nm [3]: 0.267 OD450 nm
OD450 nm [4]: 0.204 OD450 nm
Kd [5]: 0.014 nM
Kd [6]: 1.7 nM
OD450 nm [7]: 0.362 OD450 nm
OD450 nm [8]: 0.065 OD450 nm
percentage of bound virus [9]: 50%
OD450 nm [10]: 0.171 OD450 nm
OD450 nm [11]: 0.305 OD450 nm
